The values that follow come from paper PMC7610652 (Nature structural & molecular biology, 2021).

Sequences and labels used below:
B4: RPC7α, subunit of the human RNA polymerase III heterotrimer (natural protein)
chain: MAGNKGRGRAAYTFNIEAVGFSKGEKLPDVVLKPPPLFPDTDYKPVPLKTGEGEEYMLALKQELRETMKRMPYFIETPEERQDIERYSKRYMKVYKEEWIPDWRRLPREMMPRNKCKKAGPKPKKAKDAGKGTPLTNTEDVLKKMEELEKRGDGEKSDEENEEKEGSKEKSKEGDDDDDDDAAEQEEYDEEEQEEENDYINSYFEDGDDFGADSDDNMDEATY
B5: RPC4, subunit of the human RNA polymerase III heterodimer (natural protein)
chain: MSEGNAAGEPSTPGGPRPLLTGARGLIGRRPAPPLTPGRLPSIRSRDLTLGGVKKKTFTPNIISRKIKEEPKEEVTVKKEKRERDRDRQREGHGRGRGRPEVIQSHSIFEQGPAEMMKKKGNWDKTVDVSDMGPSHIINIKKEKRETDEETKQILRMLEKDDFLDDPGLRNDTRNMPVQLPLAHSGWLFKEENDEPDVKPWLAGPKEEDMEVDIPAVKVKEEPRDEEEEAKMKAPPKAARKTPGLPKDVSVAELLRELSLTKEEELLFLQLPDTLPGQPPTQDIKPIKTEVQGEDGQVVLIKQEKDREAKLAENACTLADLTEGQVGKLLIRKSGRVQLLLGKVTLDVTMGTACSFLQELVSVGLGDSRTGEMTVLGHVKHKLVCSPDFESLLDHKHR

Common to all, as to experiment: cryo-EM structure
The target of assay [1] is B4.
Assay [2] addresses T1, RPC1, subunit of human RNA polymerase III (human, UniProt O14802 1-1390).
T1 sequence: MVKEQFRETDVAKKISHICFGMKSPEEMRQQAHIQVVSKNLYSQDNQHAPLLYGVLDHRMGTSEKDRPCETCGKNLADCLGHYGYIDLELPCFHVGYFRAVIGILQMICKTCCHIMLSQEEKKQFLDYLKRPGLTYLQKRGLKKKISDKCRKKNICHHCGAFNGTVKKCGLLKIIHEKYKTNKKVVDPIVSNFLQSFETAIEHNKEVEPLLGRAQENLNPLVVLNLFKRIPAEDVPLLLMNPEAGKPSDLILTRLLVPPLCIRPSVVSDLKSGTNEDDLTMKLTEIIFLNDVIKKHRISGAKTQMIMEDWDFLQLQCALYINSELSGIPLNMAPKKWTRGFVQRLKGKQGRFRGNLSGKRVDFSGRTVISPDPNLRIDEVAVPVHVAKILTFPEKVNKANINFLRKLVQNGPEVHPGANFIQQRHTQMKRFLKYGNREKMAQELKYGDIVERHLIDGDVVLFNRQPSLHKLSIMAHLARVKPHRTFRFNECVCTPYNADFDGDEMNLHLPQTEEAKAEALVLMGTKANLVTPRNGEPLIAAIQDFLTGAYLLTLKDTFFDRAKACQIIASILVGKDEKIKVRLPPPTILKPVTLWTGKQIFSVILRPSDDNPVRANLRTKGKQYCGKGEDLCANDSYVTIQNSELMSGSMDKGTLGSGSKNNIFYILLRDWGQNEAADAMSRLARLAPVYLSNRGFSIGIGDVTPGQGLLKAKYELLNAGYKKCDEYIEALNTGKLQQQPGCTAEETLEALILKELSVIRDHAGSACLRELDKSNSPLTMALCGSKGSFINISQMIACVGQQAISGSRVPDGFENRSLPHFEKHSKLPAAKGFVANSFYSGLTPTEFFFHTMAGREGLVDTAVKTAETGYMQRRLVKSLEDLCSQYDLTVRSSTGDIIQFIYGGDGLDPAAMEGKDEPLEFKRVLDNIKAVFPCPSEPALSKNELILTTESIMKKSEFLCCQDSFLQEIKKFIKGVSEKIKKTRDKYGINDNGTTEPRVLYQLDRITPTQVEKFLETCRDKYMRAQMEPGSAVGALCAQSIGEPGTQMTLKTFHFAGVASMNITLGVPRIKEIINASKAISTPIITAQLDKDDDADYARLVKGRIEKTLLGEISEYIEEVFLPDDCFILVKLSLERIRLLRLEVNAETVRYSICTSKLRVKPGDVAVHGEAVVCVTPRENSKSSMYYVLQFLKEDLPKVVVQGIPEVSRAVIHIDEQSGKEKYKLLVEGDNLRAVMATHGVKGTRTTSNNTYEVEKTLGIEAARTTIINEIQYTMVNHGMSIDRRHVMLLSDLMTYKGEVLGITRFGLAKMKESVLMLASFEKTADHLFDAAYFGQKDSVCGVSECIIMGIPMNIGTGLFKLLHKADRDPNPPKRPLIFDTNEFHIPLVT

Assay [3] addresses T2, RPC3, subunit of the human RNA polymerase III heterotrimer (human, UniProt Q9BUI4 1-534).
T2 sequence: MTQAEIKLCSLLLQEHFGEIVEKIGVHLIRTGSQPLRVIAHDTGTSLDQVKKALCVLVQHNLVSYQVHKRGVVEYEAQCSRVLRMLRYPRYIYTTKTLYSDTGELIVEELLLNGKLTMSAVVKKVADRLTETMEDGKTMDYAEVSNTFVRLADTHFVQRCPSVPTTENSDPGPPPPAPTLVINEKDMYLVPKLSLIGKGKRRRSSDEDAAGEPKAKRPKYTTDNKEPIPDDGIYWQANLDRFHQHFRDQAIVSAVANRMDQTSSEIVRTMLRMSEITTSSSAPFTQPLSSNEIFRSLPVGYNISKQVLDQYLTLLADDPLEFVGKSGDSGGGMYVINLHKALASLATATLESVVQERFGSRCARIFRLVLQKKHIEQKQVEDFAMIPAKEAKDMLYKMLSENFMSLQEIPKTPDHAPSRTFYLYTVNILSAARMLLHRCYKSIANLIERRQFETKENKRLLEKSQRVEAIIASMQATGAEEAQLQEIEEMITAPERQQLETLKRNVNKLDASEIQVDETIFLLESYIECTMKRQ

Assay [4] deals with T3, RPC5, subunit of the human RNA polymerase III heterodimer (human, UniProt Q9NVU0 1-708).
T3 sequence: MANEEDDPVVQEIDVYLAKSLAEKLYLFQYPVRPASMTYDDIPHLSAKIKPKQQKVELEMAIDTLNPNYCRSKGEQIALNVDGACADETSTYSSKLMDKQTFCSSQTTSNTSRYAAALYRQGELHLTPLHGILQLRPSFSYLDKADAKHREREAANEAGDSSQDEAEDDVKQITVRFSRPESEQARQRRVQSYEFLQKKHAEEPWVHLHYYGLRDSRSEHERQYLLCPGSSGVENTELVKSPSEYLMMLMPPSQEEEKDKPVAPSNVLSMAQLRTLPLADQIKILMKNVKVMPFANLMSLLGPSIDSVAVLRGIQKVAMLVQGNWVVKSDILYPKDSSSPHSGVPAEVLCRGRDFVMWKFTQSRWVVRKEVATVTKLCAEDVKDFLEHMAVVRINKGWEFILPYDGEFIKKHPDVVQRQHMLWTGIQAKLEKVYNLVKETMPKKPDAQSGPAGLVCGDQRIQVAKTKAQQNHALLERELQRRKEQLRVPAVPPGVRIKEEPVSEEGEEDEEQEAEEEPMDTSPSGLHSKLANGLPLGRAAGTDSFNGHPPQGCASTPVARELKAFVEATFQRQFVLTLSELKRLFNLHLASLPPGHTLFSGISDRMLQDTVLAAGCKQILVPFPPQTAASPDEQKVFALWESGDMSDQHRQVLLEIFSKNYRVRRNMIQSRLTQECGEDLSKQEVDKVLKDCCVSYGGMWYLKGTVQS

In assay [5] the target is B5.

B1: RPC8, stalk subunit of human RNA polymerase III (natural protein)
chain: MFVLVEMVDTVRIPPWQFERKLNDSIAEELNKKLANKVVYNVGLCICLFDITKLEDAYVFPGDGASHTKVHFRCVVFHPFLDEILIGKIKGCSPEGVHVSLGFFDDILIPPESLQQPAKFDEAEQVWVWEYETEEGAHDLYMDTGEEIRFRVVDESFVDTSPTGPSSADATTSSEELPKKEAPYTLVGSISEPGLGLLSWWTSN
As to B1, in assay [1], the binding result is “binds”.

B2: RPC6, subunit of the human RNA polymerase III heterotrimer (natural protein)
chain: MAEVKVKVQPPDADPVEIENRIIELCHQFPHGITDQVIQNEMPHIEAQQRAVAINRLLSMGQLDLLRSNTGLLYRIKDSQNAGKMKGSDNQEKLVYQIIEDAGNKGIWSRDIRYKSNLPLTEINKILKNLESKKLIKAVKSVAASKKKVYMLYNLQPDRSVTGGAWYSDQDFESEFVEVLNQQCFKFLQSKAETARESKQNPMIQRNSSFASSHEVWKYICELGISKVELSMEDIETILNTLIYDGKVEMTIIAAKEGTVGSVDGHMKLYRAVNPIIPPTGLVRAPCGLCPVFDDCHEGGEISPSNCIYMTEWLEF
Consider B2, for which the binding result in assay [2] and in assay [3] was “binds” in each case.

B3: RPC10, TFIIS-like subunit of human RNA polymerase III (natural protein)
chain: not shown
Consider B3, for which the binding result in assay [2], in assay [4] and in assay [5] was “binds” throughout.

For B4, the binding result in assay [2] and in assay [3] was “binds” in each case.

As to B5, the binding result in assay [2] and in assay [4] was “binds” throughout.
